Test [1] has as its target Calcineurin (CN), purified as glutathione S-transferase fusion protein from Escherichia coli BL21 cells (UniProt Q08209). The experiment in a line: FA competition, competitor FITC-ZIZIT (100 nM), CN 150 nM.
Test [2] shares this target. The experiment in a line: fluorescence anisotropy, N-terminal 5(6)-SFX labeled peptide (100 nM) titrated with CN. (In general: Polarisation of emitted light reports the rotation of a fluorescent probe.)
Test [3] shares this target. The experiment in a line: fluorescence anisotropy, ratio of KD values against VIVIT.
Test [4] shares this target. The experiment in a line: fluorescence anisotropy, ratio of KD values against ZIZIT.
For test [5], the target named is protein-tyrosine phosphatase SHP1 (UniProt P29350). The experiment in a line: fluorescence anisotropy, FITC-labeled ZIZIT-cisPro 100 nM.
In test [6] the target is bovine serum albumin (BSA) (bovine, UniProt P02769 25-607). The test is described as above.
Sequence of bovine serum albumin (BSA) (P02769 25-607 limits assumed): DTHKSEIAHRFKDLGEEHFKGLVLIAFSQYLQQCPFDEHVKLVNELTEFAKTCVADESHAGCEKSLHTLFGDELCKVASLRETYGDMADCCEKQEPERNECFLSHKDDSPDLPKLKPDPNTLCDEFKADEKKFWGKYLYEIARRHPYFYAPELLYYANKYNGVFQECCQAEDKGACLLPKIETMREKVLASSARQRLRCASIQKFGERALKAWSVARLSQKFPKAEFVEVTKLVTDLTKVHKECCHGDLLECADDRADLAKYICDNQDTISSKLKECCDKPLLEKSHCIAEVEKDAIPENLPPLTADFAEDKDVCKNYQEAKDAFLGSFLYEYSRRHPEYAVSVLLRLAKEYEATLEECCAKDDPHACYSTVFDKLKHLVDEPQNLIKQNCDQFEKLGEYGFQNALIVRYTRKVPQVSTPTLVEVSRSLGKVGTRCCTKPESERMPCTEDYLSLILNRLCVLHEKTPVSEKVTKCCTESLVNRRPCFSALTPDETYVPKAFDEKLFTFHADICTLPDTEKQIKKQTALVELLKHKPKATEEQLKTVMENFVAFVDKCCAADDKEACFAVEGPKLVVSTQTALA
The target in another test is T1, Grb2 SH2 domain (UniProt P62993 60-152, limits assumed).
T1 construct: domain: SH2 domain; also called SH2 domain of Grb2
T1 sequence (P62993 60-152 limits assumed): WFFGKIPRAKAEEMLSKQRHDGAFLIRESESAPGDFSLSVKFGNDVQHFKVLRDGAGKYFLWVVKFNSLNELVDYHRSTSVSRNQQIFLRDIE
The test is described as above.

Test [7] deals with Calcineurin (CN), purified as glutathione S-transferase fusion protein from Escherichia coli BL21 cells (UniProt Q08209). The test can be described thus: in vitro binding to CN, against ZIZIT.

Starred links: 1 amine or outer side, 2 acyl side, 3 side chain; linkers in the order of their positions; H or OH if unused. Non-standard residues stand in square brackets, D forms with d. *: point of attachment. Cys(ΨMe,MePro) = 2,2-dimethyl-L-thiazolidine-4-carboxylic acid, cis-proline analog, CC1(C)SC[C@@H](C(=O)[*:2])N1[*:1]; F∗ = N-terminal 5(6)-SFX fluorescein label; Tle = CC(C)(C)[C@H](N)C(=O)O; NHPr = CCCN* Where only a bound is given, the exact number is not on record here.

What is called IC50 is the concentration that gives 50% inhibition. Usually Kd stands for the equilibrium constant for the complex coming apart.

As for “unlabeled ZIZIT-cisPro peptide (GPHPZIZITG-Cys(Ψ^Me,MePro)-HEE)”, the IC50 in test [1] amounted to 110 nM.

Turning to “unlabeled ZIZIT peptide (GPHPZIZITGPHEE, Z = tert-leucine)”, the IC50 in test [1] was found to be 280 nM.

With “Fluorescein-labeled ZIZIT peptide (GPHPZIZITGPHEE, Z = tert-leucine)”, the Kd in test [2] came to 43 nM. In addition, in test [3], the fold higher affinity than VIVIT stood at 10 fold.

With {F∗}-GPHP[Tle]I[Tle]ITG[Cys(ΨMe,MePro)]HEEG-NHPr (also called FITC-labeled ZIZIT-cisPro) [F*-GPHPZIZITG-Cys(Ψ^Me,MePro)-HEEG-Propyl (F*-ZIZIT-cis), fluorescein-labeled ZIZIT-cisPro], the dissociation constant Kd was 2.6 nM in test [2] and over 15000 nM in test [5]. Besides, the fold improvement of binding affinity over VIVIT in test [3] is 200 fold. Moreover, the fold increase of binding affinity over ZIZIT in test [4] worked out at 20 fold. For the same molecule, the binding result (in test [6]; with Grb2 SH2 domain) was “no binding (tested: 15 µM)” in each case. Also, in test [7], the fold more active than ZIZIT for binding came to 15 fold.

Turning to {F∗}-GPHAVAVAAGPHEE-NH2 [F*-…-NH2 (F*-VAVAA), fluorescein-labeled negative control peptide], the Kd in test [2] was over 20000 nM.

The values above are taken from patent publication US20170281723A1 (OHIO STATE INNOVATION FOUNDATION, published 2017).
